Patent publication US20070259402

B1: human PC5 (PC5A), expressed from pSYN-PC5-003 (protein)
chain: RVYTNHWAVKIAGGFPEANRIASKYGFINIGQIGALKDYYHFYHSRTIKRSVISSRGTHSFISMEPKVEWIQQQVVKKRTKRDYDFSRAQSTYFNDPKWPSMWYMHCSDNTHPCQSDMNIEGAWKRGYTGKNIVVTILDDGIERTHPDLMQNYDALASCDVNGNDLDPMPRYDASNENKHGTRCAGEVAAAANNSHCTVGIAFNAKIGGVRMLDGDVTDMVEAKSVSFNPQHVHIYSASWGPDDDGKTVDGPAPLTRQAFENGVRMGRRGLGSVFVWASGNGGRSKDHCSCDGYTNSIYTISISSTAESGKKPWYLEECSSTLATTYSSGESYDKKIITTDLRQRCTDNHTGTSASAPMAAGIIALALEANPFLTWRDVQHVIVRTSRAGHLNANDWKTNAAGFKVSHLYGFGLMDAEAMVMEAEKWTTVPRQHVCVESTDRQIKTIRPNSAVRSIYKASGCSDNPNRHVNYLEHVVVRITITHPRRGDLAIYLTSPSGTRSQLLANRLFDHSMEGFKNWEFMTIHCWGERAAGDWVLEVYDTPSQLRNFKTPGKLKEWSLVLYGTSVQPYSPTNEFPKVERFRYSRVEDPTDDYGTEDYAGPCDPECSEVGCDGPGPDHCNDCLHYYYKLKNNTRICVSSCPPGHYHADKKRCRKCAPNCESCFGSHGDQCMSCKYGYFLNEETNSCVTHCPDGSYQDTKKNLCRKCSENCKTCTEFHNCTECRDGLSLQGSRCSVSCEDGRYFNGQDCQPCHRFCATCAGAGADGCINCTEGYFMEDGRCVQSCSISYYFDHSSENGYKSCKKCDISCLTCNGPGFKNCTSCPSGYLLDLGMCQMGAICKDATEESWAEGGFCMLVKKNNLCQRKVLQQLCCKTCTFQG
B2: KEX2-SOL (soluble form of the yeast endoprotease KEX2, amino acids 1-675) (protein)
chain: LVSSQQIPLKDHTSRQYFAVESNETLSRLEEMHPNWKYEHDVRGLPNHYVFSKELLKLGKRSSLEELQGDNNDHILSVHDLFPRNDLFKRLPVPAPPMDSSLLPVKEAEDKLSINDPLFERQWHLVNPSFPGSDINVLDLWYNNITGAGVVAAIVDDGLDYENEDLKDNFCAEGSWDFNDNTNLPKPRLSDDYHGTRCAGEIAAKKGNNFCGVGVGYNAKISGIRILSGDITTEDEAASLIYGLDVNDIYSCSWGPADDGRHLQGPSDLVKKALVKGVTEGRDSKGAIYVFASGNGGTRGDNCNYDGYTNSIYSITIGAIDHKDLHPPYSEGCSAVMAVTYSSGSGEYIHSSDINGRCSNSHGGTSAAAPLAAGVYTLLLEANPNLTWRDVQYLSILSAVGLEKNADGDWRDSAMGKKYSHRYGFGKIDAHKLIEMSKTWENVNAQTWFYLPTLYVSQSTNSTEETLESVITISEKSLQDANFKRIEHVTVTVDIDTEIRGTTTVDLISPAGIISNLGVVRPRDVSSEGFKDWTFMSVAHWGENGVGDWKIKVKTTENGHRIDFHSWRLKLFGESIDSSKTETFVFGNDKEEVEPAATESTVSQYSASSTSISISATSTSSISIGVETSAIPQTTTASTDPDSDPNTPKKLSSPRQ
B3: PC7-SOL (soluble form of PC7, amino acids 1-663) (protein)
chain: LAGTGGPDGQGTGGPSWAVHLESLEGDGEEETLEQQADALAQAAGLVNAGRIGELQGHYLFVQPAGHRPALEVEAIRQQVEAVLAGHEAVRWHSEQRLLRRAKRSVHFNDPKYPQQWHLNNRRSPGRDINVTGVWERNVTGRGVTVVVVDDGVEHTIQDIAPNYSPEGSYDLNSNDPDPMPHPDVENGNHHGTRCAGEIAAVPNNSFCAVGVAYGSRIAGIRVLDGPLTDSMEAVAFNKHYQINDIYSCSWGPDDDGKTVDGPHQLGKAALQHGVIAGRQGFGSIFVVASGNGGQHNDNCNYDGYANSIYTVTIGAVDEEGRMPFYAEECASMLAVTFSGGDKMLRSIVTTDWDLQKGTGCTEGHTGTSAAAPLAAGMIALMLQVRPCLTWRDVQHIIVFTATRYEDRRAEWVTNEAGFSHSHQHGFGLLNAWRLVNAAKIWTSVPYLASYVSPVLKENKAIPQSPRSLEVLWNVSRMDLEMSGLKTLEHVAVTVSITHPRRGSLELKLFCPSGMMSLIGAPRSMDSDPNGFNDWTFSTVRCWGERARGTYRLVIRDVGDESFQVGILRQWQLTLYGSVWSAVDIRDRQRLLESAMSGKYLHDDFALPCPPGLKIPEEDGYTITPN

What was measured:
[1] = molecular target: proFIX-Fc (FIX-Fc retaining the FIX propeptide; dimer or monomer form not given)
[2] = molecular target: proFIX-Fc monomer-dimer hybrid (FIX-Fc monomer retaining the propeptide)
[3] = molecular target: N297A version of FIX-Fc retaining the propeptide

Protein	Propeptide Processing (Western blotting), CHO, stable transfection [1]	Propeptide Processing (Western blotting), CHO, transient transfection [1]	Propeptide Processing (Western blotting), HEK, stable transfection [1]	Propeptide Processing (Western blotting), HEK, transient transfection [1]	peptide mapping (tryptic digest, LC/MS) for the propeptide indicator peptide (PIP), HEK stable line [2]	propeptide processing, Fc and propeptide Western blots, HEK 293 transient transfection (FIG. 8 lane 4, N297A Fc) [3]	Propeptide Processing (Western blotting), HEK, stable transfection [3]	peptide mapping (tryptic digest, LC/MS) for the propeptide indicator peptide (PIP), CHO stable line [1]
B1	processes	processes	processes	processes	undetectable in purified FIX-Fc monomer cotransfected with PC5	–	–	–
B2	–	processes (cryptic cleavage)	–	does not fully process	–	FIX-Fc cotransfected with KEX2-SOL is not processed, as can be seen by the presence of propeptide in this material (lanes 3 and 4, bands present on both blots)	–	–
B3	does not fully process	processes	–	does not fully process	–	–	does not fully process	ProFIX-Fc was also found in CHO FIX-Fc protein that was cotransfected with PC7, although possibly at lower levels as indicated in the UV trace
